Source: patent US11142588B2, “Polypeptides which bind C-X-C chemokine receptor type 4 (CXCR4) and methods of treating or reducing the risk of fibrosis and cancer” (AdAlta Limited, priority 2015, dated 2021)
Like-named read-outs stand apart in the source and are kept apart here. One block for each molecule: values may come before it.

Tests used:
Ramos tumor cells [1] = conditions: previous report, Kuhne et al 2013; cited from earlier work
Ramos tumor cells [2] = assay: Apoptosis assay (annexin V / propidium iodide flow cytometry); type: cell-based, human; conditions: annexin V and propidium iodide double positive, 24 or 72 hours
Protocol: The ability of an i-body of the invention to induce apoptosis in Ramos tumor cells (a human Burkitt's lymphoma cell line) was examined in an apoptosis assay according to the methods as described in Mishra M et al (2011) J Cell Mol Med 15(11):2462-77. I-bodies were incubated with Ramos cells and examined by flow cytometry after 24 or 72 hours. The cells were stained for annexin V and propidium iodide which are classic markers for apoptosis. Cells which were double positive were assessed to have become apoptotic.

CCRF-CEM cells = assay: Immunohistochemistry staining of tumours in spleen and liver of SCID/bg mice; conditions: 130 μg/ml
Protocol: Tissues were fixed in 10% neutral buffered formalin overnight and subsequently transferred into tissue cassettes and placed in 70% ethanol. The tissues were then paraffin embedded. Slides containing 4 μm sections were deparaffinized and hydrated by incubating them in two changes of xylene for five min each, followed by two changes of 100% ethanol for 3 min each, 70% ethanol for 2 min, 50% ethanol for 2 min, and distilled water for 5 min. Antigen retrieval was performed by incubating the slides in 10 mM Citric acid solution (pH 6.0) in an 80° C. oven overnight. The slides were subsequently washed in PBS and permeabilized in 10% methanol containing 0.4% H2O2 for 30 min. […] All slides were subsequently stained with biotinylated anti-His tag antibodies (Miltenyi Biotech) and developed using an HRP-DAB cell and tissue staining kit according to the manufacturer's instructions (R&D systems).

[3] = Laser induced choroidal neovascularisation model; type: in vivo, mouse; conditions: intravitreal, 1 μl up to 20 mg/ml
Protocol: The laser induced choroidal neovascularisation (CNV) is a well characterised and accepted model of choroidal neovascularisation (Fletcher E L et al. (2011) Prog Mol Biol Transl Sci 100:211-286). It is also a rapid method for determining the efficacy of potential treatments that target angiogenesis and fibrosis. Briefly, up to four laser spots are applied to the posterior eye using a continuous wave photocoagulation laser ([…] diode). The laser energy is high enough to create a break in Bruch's membrane. During the following 7-14 days, growth of blood vessels from the choroid into the retina occurs, and is quantified either immuocytochemically, or using fluorescein angiography.
Mice were treated as below: • Group 1 (n=10): laser both eyes-vehicle in one eye; i-body in the other • Group 2 (n=10): Laser one eye (no i-body); other eye unlasered. • The i-body drug was injected intravitreally in 1 μl volume at a concentration up to 20 mg/ml.
The expression of genes associated with angiogenesis and fibrosis was examined. Total RNA was isolated from the retina and RPE/choroidal samples using commercial spin columns (RNeasy, Qiagen, Valencia Calif.). A PCR gene array was used to assess the expression of 84 genes involved angiogenesis or fibrosis (Qiagen). Briefly, total RNA samples from untreated, laser treated eyes and untreated fellow eyes (n=9 each group, each 25 ng) were pooled within their respective treatment groups (3 independent experiments containing 3 pooled samples), reversed transcribed (RT2 first strand, Qiagen) and then underwent pre-amplification of the cDNA target templates (RT2 pre-AMP, Qiagen). Samples were added to a commercial mastermix (RT2 SYBR green mastermix, Qiagen) and amplified for 40 cycles (ABI 7900HT, Life Technologies, Grand Island N.Y.). Three independent arrays were performed for each treatment group. The data were analysed using delata delta Ct (ΔΔCt), expressed as fold change and regulation assessed using an unpaired t-test.

[4] = test system: normal and IPF lung fibroblasts; assay: Wound healing invasion assay of lung fibroblasts; type: cell-based, human; conditions: 130 μg/ml
Protocol: To determine the role of CXCR4 and CXCL12 in fibroblast invasion, normal and IPF lung fibroblasts were utilized in a wound healing invasion assay. ImageLock 96 well plates (Essen Bioscience) were coated with 50 μg/ml of Basement membrane extract (BME; Trevigen) for one hour at room temperature. Normal, and fibroblasts generated from lung biopsies of idiopathic pulmonary fibrosis (IPF) patients showing slow progression or rapid progression of the disease were plated (36,000 cells per well) on the BME-coated plates and incubated overnight. […] The BME was allowed to polymerize by incubating the plate at 37° C. for 15 minutes. The plates were then inserted into an IncuCyte Zoom imaging system and images were acquired every 2 hours for approximately 50 hours. Invasion was quantified using IncuCyte software (Essen Bioscience).

[5] = test system: ACTA2, COL1A1, COL3A1 and FN1 transcripts; assay: qPCR of pro-fibrotic transcripts in lung fibroblasts; type: cell-based, human; conditions: 130 μg/ml, 48 hours
Protocol: After 48 hours, RNA was extracted using Trizol reagent and reverse transcribed into cDNA using superscript II reverse transcriptase (Life technology) as previously described (Trujillo et al Sci Transl Med 2010 2; 57ra82). Complementary DNA (cDNA) was subsequently loaded into a Taqman plate and gene expression analysis were performed using predesigned primers for COL1A1, COL3A1, FN1, and aSMA. All Taqman analysis was performed using an Applied Bio system's Viia 7 instrument (Life technology). The results were then exported, normalized to 18s RNA expression and fold change analysis were calculated using Data Assist software (Life technologies).

CCL2 and CCL5 protein = assay: CCL2, CCL5, CXCL12 ELISA of fibroblast conditioned supernatants; type: cell-based, human; conditions: 48 hours
Text: Various reports indicate that CXCR4 signals in conjunction with other chemokine receptors, including CCR2.

[6] = Binding to null lipoparticles (off-target control)
Protocol: (FIGS. 2A-2C, 5A-5C, 11A-11D, 17A-17B) Kinetic binding analysis of selected i-bodies with immobilized CXCR4 lipoparticles were performed at 25° C. using Biacore T200 instrument (GE Healthcare, Uppsala, Sweden). Streptavidin immobilization was performed in 1×HBS-P+ running buffer (10 mM HEPES, 150 mM NaCl, 0.05% [v/v] Tween-20). Amine coupling kit (GE Healthcare) and the instructions therein were utilized for the attachment of Streptavidin (Sigma; diluted to 100 μg/mL in 10 mM sodium acetate buffer pH 4.5) in all four channels on the sensor chip surface simultaneously, resulting in >6,000 RU of Streptavidin being coupled (1 RU=1 pg protein/mm^2). All binding experiments involving lipoparticles were performed with 1×HBS/BSA (10 mM HEPES, 150 mM NaCl, 1 mg/mL BSA) as instrument running buffer. Biotinylated CXCR4 lipoparticles (Integral Molecular, Cat #LEV-101B; 3.6 U/mL as described in WO 2005/042695) were typically diluted 1 in 20 in the running buffer and immobilized onto a Streptavidin containing channel by injecting at […] for 1,800 sec resulting in captured response levels of greater than 2,500 RU. […] In order to determine binding kinetics, serial dilutions (three-fold) of i-bodies diluted in 1×HBS/BSA were injected over immobilized lipoparticles with the association and dissociation phases monitored for 60 sec and 600 sec, respectively. […]

[7] = biological target: CCR5 positive lipoparticles (Homo sapiens, UniProt P51681); assay: ELISA binding to CCR5 positive lipoparticles
Chain of CCR5 positive lipoparticles (P51681 whole entry): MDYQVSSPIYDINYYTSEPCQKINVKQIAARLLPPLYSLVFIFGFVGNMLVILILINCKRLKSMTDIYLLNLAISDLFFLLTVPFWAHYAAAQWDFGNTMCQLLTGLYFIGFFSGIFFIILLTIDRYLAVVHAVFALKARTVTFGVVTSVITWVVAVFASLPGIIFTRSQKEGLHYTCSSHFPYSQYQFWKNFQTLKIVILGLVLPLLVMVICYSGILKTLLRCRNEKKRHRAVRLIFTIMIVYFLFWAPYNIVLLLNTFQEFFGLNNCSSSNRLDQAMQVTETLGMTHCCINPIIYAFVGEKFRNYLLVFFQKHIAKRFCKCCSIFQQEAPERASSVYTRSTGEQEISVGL
Text: The mutant i-body clones were also examined for binding to CCR5 positive lipoparticles (FIG. 7B).

CXCR4 = CXCR4 (Homo sapiens, UniProt P61073); assay: β-arrestin BRET assay, antagonist mode with 100 nM SDF-1; type: cell-based; parameters: expressed in transfected cells; host or cells: HEK293FT; conditions: various concentrations
Chain of CXCR4 (P61073 whole entry): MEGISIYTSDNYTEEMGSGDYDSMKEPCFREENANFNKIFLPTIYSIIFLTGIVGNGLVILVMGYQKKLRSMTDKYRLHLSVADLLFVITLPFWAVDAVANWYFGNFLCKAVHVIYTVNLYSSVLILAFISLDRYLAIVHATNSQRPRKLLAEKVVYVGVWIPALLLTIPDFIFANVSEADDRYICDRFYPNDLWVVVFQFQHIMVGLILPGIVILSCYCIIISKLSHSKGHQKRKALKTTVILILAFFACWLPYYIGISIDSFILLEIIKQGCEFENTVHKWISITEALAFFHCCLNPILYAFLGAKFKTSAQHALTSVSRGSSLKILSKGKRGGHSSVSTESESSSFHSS
Summary of the method: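 Ten concentrations of i-body with 100 nM SDF-1 were applied to transiently transfected HEK293FT cells carrying CXCR4/Rluc8 donor and β-arrestin2/Venus acceptor. Emissions at 400-475 and 520-540 nm were read at 37 °C, and the vehicle-subtracted ratio gave the BRET signal (four independent duplicate experiments).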

Molecule: MDX-1338: human anti-CXCR4 mAb
induction of apoptosis in Ramos cells (Ramos tumor cells [1]): able to induce apoptosis

B1: AM3-114-6H: AM3-114 with 6 His tag, containing the N-terminal sequence EAEA (protein)
chain: EAEALQVDIVPYQGEISVGESKFFLCQVAGSLSGIRISWFSPNGEKLTPNQQRISVVWNDDSSSTLTIYNANIDDAGIYKCVVWRTGGYRHRYLVLGEATVNVKIFQ
modifications: left off: small tags and cut ends
induction of apoptosis in Ramos cells (Ramos tumor cells [2]): strongly induce apoptosis
staining of CCRF-CEM cells in spleen and liver (CCRF-CEM cells): stained CCRF-CEM cells
pathological angiogenesis / lesion size [3]: reduces pathological angiogenesis or lesion characteristics
invasion of rapid-IPF (fast progressor) lung fibroblasts [4]: two out three
invasion of slow-IPF lung fibroblasts [4]: inhibited invasion
ACTA2, COL1A1, COL3A1 and FN1 transcript expression in slow-IPF lung fibroblasts [5]: markedly reduced
CCL2 protein in IPF fibroblast conditioned supernatants (CCL2 and CCL5 protein): markedly increased

binding to null lipoparticles [6]: very little binding
binding to CCR5 positive lipoparticles [7]: very little binding
β-arrestin activity (CXCR4): some degree of inhibition
B2: ADCX-272: CXCR4 binding i-body, SEQ ID NO: 14 (protein)
chain: LQVDIVPSQGEISVGESKFFLCQVAGHLEVRSISWFSPNGEKLTPNQQRISVVWNDDSSSTLTIYNANIDDAGIYKCVVEQRGRSQSYFSEATVNVKIFQ
